Experimental data published in patent publication US20240158497A1 (published 2024).

T1: full length (FL) human gp130 over-expressed on HEK293/Stat3-luc/gp130-2X Sort cells (human, UniProt P40189 23-918)
T1 sequence: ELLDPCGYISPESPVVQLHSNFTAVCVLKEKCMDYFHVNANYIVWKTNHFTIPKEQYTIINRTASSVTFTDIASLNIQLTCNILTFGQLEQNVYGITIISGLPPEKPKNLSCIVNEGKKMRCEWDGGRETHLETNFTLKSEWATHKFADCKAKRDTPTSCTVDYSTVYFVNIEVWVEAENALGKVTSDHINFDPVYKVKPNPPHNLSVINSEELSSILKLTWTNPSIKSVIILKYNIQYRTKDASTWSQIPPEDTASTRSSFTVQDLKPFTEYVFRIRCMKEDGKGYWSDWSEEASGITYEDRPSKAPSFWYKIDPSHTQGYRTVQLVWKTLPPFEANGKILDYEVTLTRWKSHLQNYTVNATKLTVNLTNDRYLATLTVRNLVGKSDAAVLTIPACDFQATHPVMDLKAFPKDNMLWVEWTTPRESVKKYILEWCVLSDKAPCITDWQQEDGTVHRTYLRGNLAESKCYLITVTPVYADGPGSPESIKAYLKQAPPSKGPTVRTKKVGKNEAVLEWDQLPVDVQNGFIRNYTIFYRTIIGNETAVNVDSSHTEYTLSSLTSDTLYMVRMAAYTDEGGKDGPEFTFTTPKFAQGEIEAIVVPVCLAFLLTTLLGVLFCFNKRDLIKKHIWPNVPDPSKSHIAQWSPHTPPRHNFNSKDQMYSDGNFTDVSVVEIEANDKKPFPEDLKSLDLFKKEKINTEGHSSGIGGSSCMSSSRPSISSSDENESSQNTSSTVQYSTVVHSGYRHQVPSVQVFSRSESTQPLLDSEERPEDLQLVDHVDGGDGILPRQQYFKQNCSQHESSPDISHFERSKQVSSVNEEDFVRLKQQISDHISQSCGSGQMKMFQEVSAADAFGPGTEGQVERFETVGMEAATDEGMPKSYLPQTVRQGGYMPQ

T2: human gp130 expressed endogenously on IMR-32/Stat3-luc cells (human, UniProt P40189 23-918)
T2 construct: Endogenous gp130 of the human neuroblastoma line IMR-32
T2 sequence: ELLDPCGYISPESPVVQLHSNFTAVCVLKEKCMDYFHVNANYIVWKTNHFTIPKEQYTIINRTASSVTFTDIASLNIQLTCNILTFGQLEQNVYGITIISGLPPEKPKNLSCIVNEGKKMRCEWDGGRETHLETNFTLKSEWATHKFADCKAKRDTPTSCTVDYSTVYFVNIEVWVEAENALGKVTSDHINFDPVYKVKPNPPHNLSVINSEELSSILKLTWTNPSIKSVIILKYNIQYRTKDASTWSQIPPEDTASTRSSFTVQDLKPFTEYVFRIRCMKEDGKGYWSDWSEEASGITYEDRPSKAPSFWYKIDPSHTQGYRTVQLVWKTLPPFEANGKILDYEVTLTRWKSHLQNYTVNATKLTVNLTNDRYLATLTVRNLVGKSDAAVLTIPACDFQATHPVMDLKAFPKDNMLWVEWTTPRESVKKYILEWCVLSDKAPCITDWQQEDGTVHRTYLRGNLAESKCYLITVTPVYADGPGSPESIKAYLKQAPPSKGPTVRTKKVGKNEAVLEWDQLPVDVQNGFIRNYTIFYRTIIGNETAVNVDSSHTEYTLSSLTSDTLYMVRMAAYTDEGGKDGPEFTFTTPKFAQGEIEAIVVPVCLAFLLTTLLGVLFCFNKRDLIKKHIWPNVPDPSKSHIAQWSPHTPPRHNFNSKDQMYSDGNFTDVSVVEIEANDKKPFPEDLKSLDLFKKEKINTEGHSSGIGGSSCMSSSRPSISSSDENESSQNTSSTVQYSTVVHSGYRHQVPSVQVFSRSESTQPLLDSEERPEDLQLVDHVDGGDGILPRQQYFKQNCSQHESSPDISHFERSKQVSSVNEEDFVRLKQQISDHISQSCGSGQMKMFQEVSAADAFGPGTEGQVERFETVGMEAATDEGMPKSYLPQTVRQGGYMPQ


Assays:
[1] = target: T3, human GP130 full length extracellular domain with C-terminal myc-myc-hexahistidine tag (human, UniProt P40189 23-619); assay: Luminex, antigen captured on anti-myc beads
T3 construct: Monomeric; also called human GP130-MMH; hGP130-mmH
Procedure: (§1) Aliquots of microspheres with immobilized anti-myc monoclonal antibodies, prepared as described above, were added individually to 1 mL of the each of these protein supernatants and to 500 uL of purified GP130 protein. The microspheres were gently mixed, incubated for two hours at 25° C., washed twice with 1 mL of DBPS, centrifuged to remove the supernatant and finally resuspended in 1 mL of DPBS buffer. Forty eight μL of anti-myc IgG coupled microspheres from individual reactions with full length human GP130 and with each of the human GP130 domain proteins were withdrawn and mixed together in 3.6 mL of PBS+20 mg/mL BSA+0.05% sodium azide (blocking buffer).
(§2) From this mixed pool, 75 μL of microspheres were plated per well on a 96 well filter plate (Millipore, Cat. No: MSBVN1250) and mixed with 25 μL of individual anti-human GP130 monoclonal antibodies (0.5 or 5 μg/mL), incubated for two hours at 25° C. and then washed twice with 200 μL of DPBS with 0.05% Tween 20 (washing buffer). To detect and quantify the amounts of bound anti-GP130 antibody levels to individual microspheres, either 100 μL of 2.5 μg/mL R-Phycoerythrin conjugated goat F(ab′)2 anti-human kappa (Southern Biotech, Cat #2063-09) in blocking buffer, was added and incubated for 30 minutes at 25° C. After 30 minutes, the samples were washed twice with 200 μL of washing buffer and resuspended in 150 μL of wash buffer. The Median Fluorescence intensity (MFI) of the microspheres was measured in a Luminex Analyzer.

[2] = target: T4, human GP130 delta D1 with C-terminal myc-myc hexahistidine tag (human, UniProt P40189 124-619); assay: Luminex, antigen captured on anti-myc beads
T4 construct: used as CHO supernatant; also called human GP130 delta D1-MMH; GP130 Delta D1 extracellular domain
Procedure: as §1, §2

[3] = target: T5, human GP130 delta D1-D3 with C-terminal myc-myc hexahistidine tag (human, UniProt P40189 329-619); assay: Luminex, antigen captured on anti-myc beads
T5 construct: used as CHO supernatant; also called human GP130 delta D1-D3-MMH; GP130 Delta D1-D3 extracellular domain
Procedure: as §1, §2

[4] = target: T1, full length (FL) human gp130 …; assay: FACS, 10 nM Ab, HEK293/Stat3-luc/gp130-2X Sort cells
Source text: (§3) In order to assess cell binding by anti-GP130 antibodies of the invention two cell lines were generated. One cell line generated was HEK293 cells stably over-expressing full length (FL) human gp130 (amino acids 1-918 of accession #P40189 with leucine at position 2 changed to valine, a natural variant) along with a luciferase reporter (Stat3-luciferase, Stat3-luc, SA Bioscience, #CLS-6028L). The cells were sorted twice using flow cytometry for high expression of gp130. It is known hereafter as HEK293/Stat3-luc/gp130-2 X Sort. IMR-32 cells (human Neuroblastoma, ATCC), were also evaluated for cell binding as these cells express gp130 endogenously and were used for bioassays. The cells used for binding were generated to stably express a luciferase reporter (Stat3-luciferase, Stat3-luc, SA Bioscience, #CLS-6028L), and are referred to hereafter as IMR-32/STAT3-Luc cells.
(§4) For the FACS analysis, 10 nM of the antibodies were used to stain 0.5×10⁶ cells/well of each cell type at 4° C. in PBS (without calcium and magnesium) containing 2% FBS for 30 minutes. IMR-32/STAT3-luc cells were incubated with 1 mg/mL mouse IgG for 30 minutes at 4° C. to block Fc receptors prior to adding the antibodies. To test whether the anti-gp130 antibody binding is specific for gp130 on the IMR-32 cells, antibodies were added to IMR-32/Stat3-luc cells with or without being pre-bound to 1000 nM of recombinant protein of the ecto-domain of human gp130 fused to myc-myc-his tag (hgp130.mmh) for 30 minutes at 25° C. […] Cells were fixed using BD CytoFix™ (Becton Dickinson, #554655) and analyzed on an IQue® (Intellicyt®) Flow Cytometer. Unstained and secondary antibody alone controls were also tested for all cell lines. The results were analyzed using ForeCyt® (IntelliCyt®) software to determine the geometric means of fluorescence for viable cells.

[5] = target: T2, human gp130 expressed endogenously on …; assay: FACS, 10 nM Ab, IMR-32/Stat3-luc cells, no hGP130.mmh
Source text: as §3, §4

[6] = target: T2, human gp130 expressed endogenously on …; assay: FACS, 10 nM Ab pre-bound to 1 uM hGP130.mmh, IMR-32/Stat3-luc cells
Source text: as §3, §4

T5 sequence (P40189 other isoform, or with tags, fused parts or gaps mutant limits assumed): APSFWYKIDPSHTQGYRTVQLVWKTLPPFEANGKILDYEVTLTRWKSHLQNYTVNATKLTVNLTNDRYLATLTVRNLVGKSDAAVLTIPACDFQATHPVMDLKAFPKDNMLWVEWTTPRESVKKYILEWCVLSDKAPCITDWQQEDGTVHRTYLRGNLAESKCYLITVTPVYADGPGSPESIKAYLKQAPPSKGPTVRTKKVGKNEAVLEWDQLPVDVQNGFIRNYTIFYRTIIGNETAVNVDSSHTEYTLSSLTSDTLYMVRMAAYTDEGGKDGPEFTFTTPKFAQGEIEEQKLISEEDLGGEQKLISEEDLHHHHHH
T4 sequence (P40189 other isoform, or with tags, fused parts or gaps mutant limits assumed): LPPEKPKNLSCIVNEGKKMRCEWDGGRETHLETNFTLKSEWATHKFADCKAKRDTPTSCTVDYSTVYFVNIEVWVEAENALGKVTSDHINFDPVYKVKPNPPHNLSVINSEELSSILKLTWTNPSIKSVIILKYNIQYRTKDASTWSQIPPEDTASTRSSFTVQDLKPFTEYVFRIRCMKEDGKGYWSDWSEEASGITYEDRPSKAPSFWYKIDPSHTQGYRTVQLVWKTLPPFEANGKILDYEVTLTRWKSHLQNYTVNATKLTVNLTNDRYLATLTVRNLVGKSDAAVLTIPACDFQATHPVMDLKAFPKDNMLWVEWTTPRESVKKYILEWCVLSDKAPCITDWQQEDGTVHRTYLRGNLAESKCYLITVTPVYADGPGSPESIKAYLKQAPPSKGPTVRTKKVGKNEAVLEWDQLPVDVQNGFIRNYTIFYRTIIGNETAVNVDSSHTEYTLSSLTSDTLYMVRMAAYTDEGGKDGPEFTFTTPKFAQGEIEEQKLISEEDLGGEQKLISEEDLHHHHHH

| Binder | Luminex MFI signal [1] | Luminex MFI signal [2] | Luminex MFI signal [3] | MFI - Normalized to Unstained Control [4] | MFI - Normalized to Unstained Control [5] | MFI - Normalized to Unstained Control [6] |
| --- | --- | --- | --- | --- | --- | --- |
| MAb16673 (antibody, V domains shown, hIgG4 isotype control used) VH: EVQLVQSGAEVKKPGESLKISCKGSGYSFTSYWIDWVRQMPGKGLEWMGIIYPDDSDTRYSPSFQGQVTMSVDKSISTAYLQWSSLKASDTAIYYCARHERGIVEAGTDYYYYYGMDVWGQGTTVTVSS VL: not shown | 15100 MFI | 2340 MFI | 33 MFI | 107 ratio | 10 ratio | 7 ratio |
| MAb16682 (antibody, V domains shown, hIgG4 isotype control used) VH: EVQLVESGGGLVQPGGSLRLSCAASGFTFSTYWMNWVRQAPGKGLEWVANIKEDGSEKYYVDSVKGRFTISRDNAKNSLYLQMNSLRAEDTAVYYCAREGFGVVTYIWGQGTMVTVSS VL: not shown | 13800 MFI | 1380 MFI | 13 MFI | 80 ratio | 6 ratio | 8 ratio |
| MAb16659 (antibody, V domains shown, hIgG4 isotype control used) VH: QVQLVQSGPEVKKPGSSVKVSCKASGGTIDRNEITWVRQAPGQGLEWMGVIIPILGEAHYERKFQGRLTITMDESTSTAYMELSNLRSEDTAVYYCARERAARGYLDYWGQGTLVTVSS VL: not shown | 17100 MFI | 49 MFI | 22 MFI | 81 ratio | 8 ratio | 8 ratio |
| MAb16662 (antibody, V domains shown, hIgG4 isotype control used) VH: EVQLVESGGGLVQPGGSLRLSCTASGFTFSNYAIFWVRQAPGKGLEYVSGISNNGVTKYYADSVRDRFTISRDNSRNTVSIQMDSLRTEDMAVYYCARENWGSDDGFDIWGQGTMVTVSS VL: not shown | 13900 MFI | 3050 MFI | 16 MFI | 49 ratio | 5 ratio | 6 ratio |
| MAb16623 (antibody, V domains shown, hIgG4 isotype control used) VH: EVQLVESGGGLVQPGGSLRLSCAASGLTFSSYEMNWVRQAPGKGLEWVSHISSAGSTKYYADSVKGRFTISRDNAKNSLFLQMNSLRAEDTAIYYCAGYNYAYYYFGVDVWGQGTTVTVSS VL: not shown | 17600 MFI | 12600 MFI | 16000 MFI | 96 ratio | 8 ratio | 7 ratio |
| MAb16666 (antibody, V domains shown, hIgG4 isotype control used) VH: EVQLVESGGGLVQSGGSLRLSCAASGFTFSRYEMNWVRQAPGKGLEWVAYISNTGTTRDYSDSVKGRFTISRDNAKNSLYLQMSSLRVEDTAVYYCVREKFSGTSDWFDPWGQGTLVTVSS VL: not shown | 16700 MFI | 7280 MFI | 319 MFI | 159 ratio | 23 ratio | 8 ratio |
| MAb16618 (antibody, V domains shown, hIgG4 isotype control used) VH: QVQLQESGPGLVKPSETLSLTCTVSGGSISNYYWTWIRQPPGKGLEWIGHISNSGTTNYNPSLKSRVTISVDTSKNQFSLKLTSVTAADTAVYYCARLPLGIAAVDTDYYYYFGMDVWGQGTTVTVSS VL: not shown | 19000 MFI | 2630 MFI | 19 MFI | 105 ratio | 7 ratio | 8 ratio |

The next lines start with the values.

| Luminex MFI signal [1] | Luminex MFI signal [2] | Luminex MFI signal [3] | MFI - Normalized to Unstained Control [4] | MFI - Normalized to Unstained Control [5] | MFI - Normalized to Unstained Control [6] | Binder |
| --- | --- | --- | --- | --- | --- | --- |
| 16900 MFI | 342 MFI | 861 MFI | 121 ratio | 9 ratio | 7 ratio | MAb16637 (antibody, V domains shown, hIgG4 isotype control used) VH: QVQLVQSGAEVKKPGASVKVSCKASGYTFTSLGISWVRQAPGQGLEWMGWISAYSGNRDYAQKFQGRVTMTTDTSTSTAYMELRSLRSDDTAVYYCARSLRFDYWGQGTLVTVSS VL: not shown |
| 15900 MFI | 48 MFI | 17 MFI | 132 ratio | 12 ratio | 7 ratio | MAb16656 (antibody, V domains shown, hIgG4 isotype control used) VH: EVQLVESGGGLVQPGRSLRLSCAASGFTLDDFAMHWVRQAPGKGLEWVSGISWNSGNIGYADSVKGRFTISRDNARNSLYLQMNSLRAEDTALYYCTSGYYLYYAMDVWGQGTTVTVSS VL: not shown |
| 18500 MFI | 391 MFI | 20 MFI | 91 ratio | 5 ratio | 7 ratio | MAb16622 (antibody, V domains shown, hIgG4 isotype control used) VH: EVQLVESGGGVVRPGGSLRLSCTASGFTFDDYGMSWVRQAPGKGLEWVSGINWNGGRTEYADAVKGRFIISRDNAKNSLYLQMNSLRAEDTALYFCARTELRWDYWGQGTLVTVSS VL: not shown |
| 17600 MFI | 4260 MFI | 1070 MFI | 92 ratio | 8 ratio | 7 ratio | MAb16636 (antibody, V domains shown, hIgG4 isotype control used) VH: QLQLQESGPGLVKPSETLSLICTVSGGSISSNNYYWGWIRQPPGKGLEWIGNLYGSGSTYYNPSLKSRVTISVDTSKNQFSLKLSFVTAADTAVYHCARWDTNGGAFDIWGQGTMVTVSS VL: not shown |
